# Experimental data taken from paper PMC2095792 (Nucleic Acids Research, 2007).
# B1: Pop4p (natural protein)
# chain: MDRTQTFIKDCLFTKCLEDPEKPFNENRFQDTLLLLPTDGGLTSRLQRQQRKSKLNLDNLQKVSQLESADKQLEKRDYQRINKNSKIALREYINNCKKNTKKCLKLAYENKITDKEDLLHYIEEKHPTIYESLPQYVDFVPMYKELWINYIKELLNITKNLKTFNGSLALLKLSMADYNGALLRVTKSKNKTLIGLQGIVIWDSQKFFIMIVKGNIIDEIKCIPKKGTVFQFEIPISDDDDSALRYSILGDRFKYRSVDRAGRKFKSRRCDDMLYYIQN
# modifications: 32P-phosphate on the RRASV site (bovine heart kinase), in the untagged radiolabelled form only
# B2: Pop1p (natural protein)
# chain: MSGSLSRGNGGKKVLNKNQLLKRNRIRNARSIRAEAVAASSTKTGTPSDLSESGSKLNVDQFISSRQFEVKQLQLAMHNSKAASSTRIFQALPRKLRRRTASHNVRRIPKRMRNRALREMRKSDQQDVLKGSSASSRKAHGLNAKQLYKARMSIKLLRLASKSTSMKLSMPPEVTSSNCHVRQKIKTLKRMIKESSTANPNIKLLNNRMGSYDCTGVNELAPIPKGRVKYTKRQKHFAWLPTHIWNAKRSHMMKRWGYQMVWAPTQKCFKLTHRLGGDTCSSDGALCMDSSYIGTIIVKDKSNDSEGDFLKSIIGKLTAERANLRKYREGQVLFQGLIYSFNEENGEDSTKPLGPCDVFWVQKDTAIIRLHPSIYTQVFNILLQHKEKLTVQDCRYSLASVTLKGAKALESLASCLRSTEYSKSFEQFKMVSMITDHNALPQRCTFAFEAIDPRHLAAPKKLNDSQRKTVNSDDILSLHENYPQDEINAVFNELCDPESRTQSYNNQNTLKEISARRYKLLTATPNSINKTTVPFKESDDPSIPLVIIRRLKTRDWIVVLPWFWLLPLWHLLNRIPRMYHIGLRQFQQIQYENKQLYFPDDYPFTQLGYIENSFYKKEASKTKWDRKPMGKRINFEKIKDIHNTKLPAYSGEIGDFFSSDWRFLQILRNGIDYLQRNDKTLELMDSKKTGQFNAQGVRDINCVNDVLEFCKDYEAKTKAMSLSIEENIPVALCKNRKCQFRTPDSISVNSSSFSLTFFPRCIIAVSCTLLERGHPKDNARIYQVPEKDLEHWLQLAKGVYRPNGRKDHDLKIPLPEVHDLIGFITSGTYHLNCGNGMGIGFIDHHAAIRQPTRYVLIRNVGTNTYRLGEWSKISV
# modifications: 32P-phosphate on the RRASV site (bovine heart kinase), in the untagged radiolabelled form only
# B3: Pop3p (natural protein)
# chain: MSGSLKSLDKKIAKRRQVYKPVLDNPFTNEAHMWPRVHDQPLIWQLLQSSIINKLIHIQSKENYPWELYTDFNEIVQYLSGAHGNSDPVCLFVCNKDPDVPLVLLQQIPLLCYMAPMTVKLVQLPKSAMDTFKSVSKYGMLLLRCDDRVDKKFVSQIQKNVDLLQFPWLNAIKYRPTSVKLLKTTVPIVSKKRQK
# modifications: 32P-phosphate on the RRASV site (bovine heart kinase), in the untagged radiolabelled form only
# B4: Rpp1p (natural protein)
# chain: MLVDLNVPWPQNSYADKVTSQAVNNLIKTLSTLHMLGYTHIAINFTVNHSEKFPNDVKLLNPIDIKRRFGELMDRTGLKLYSRITLIIDDPSKGQSLSKISQAFDIVAALPISEKGLTLSTTNLDIDLLTFQYGSRLPTFLKHKSICSCVNRGVKLEIVYGYALRDVQARRQFVSNVRSVIRSSRSRGIVIGSGAMSPLECRNILGVTSLIKNLGLPSDRCSKAMGDLASLVLLNGRLRNKSHKQTIVTGGGSGNGDDVVNDVQGIDDVQTIKVVKRSMDAEQLGHASKRHKP
# modifications: 32P-phosphate on the RRASV site (bovine heart kinase), in the untagged radiolabelled form only
# Biological target: the molecule itself
# Experiment: pull-down
row,Protein,binding result
1,B1,binds
2,B2,binds
3,B3,binds
4,B4,binds
